# From the nanobody polyreactivity screen of Harvey et al. (2022)
# Test: yeast display, Sf9 membrane polyspecificity reagent, FACS + sequencing; frameworks hold sequencing errors
# In short: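 After 36–48 hours of galactose induction, yeast (Saccharomyces cerevisiae BJ5465) displaying a synthetic nanobody library were stained at 4 °C for 1 hour with 10% biotinylated, detergent-solubilized Sf9 membrane reagent. Streptavidin microbeads enriched the stained cells before FACS sorting into low and high (top ~1%) gates on anti-HA and streptavidin fluorescence. Each clone's polyreactivity label reflects its gate of origin.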
row,Sequence,polyreactivity (PSR sort gate)
1,QVQLVESGGGLVQAGGSLRLSCAASGSIFYPYAMGWYRQAPGKERELVAAISYSGGSTYYADSVKGSFTISRDNAKNTVYLQMNSLKPEDTAVYYCNRRYWRRPYYKYDYWGQGTQVTVSS,high polyreactivity
2,QVQLVESGGGLVQAGGSLRLSCAASGSIFYPYAMGWYRQAPGKERELVARIRGTGGRTYYADSVKGRFTISRDNAKNTVYLQMNSLKPEDTAVYYCNAQTSGRVGSQYYSYYGSWGQGTQLTVSS,high polyreactivity
3,QVQLVESGGGLVQAGGSLRLSCAASGSIFYPYAMGWYRQAPGKERELVATINEDGGSTYYADSVKGRFTISRDNAKNTVYLQMNSLKPEDTAVYYCNTDHFEDYHTDFWSDYEYWGQGTQVTVSS,low polyreactivity
4,QVQLVESGGGLVQAGGSLRLSCAASGSIFYPYAMGWYRQAPGKERELVATISSGVNTNYADSVKGRFTISRDNAKNTVYLQMNSLKPVDTAVYYCAARFRHSFRRGGGYNYDYWGQGTQVTVSS,high polyreactivity
5,QVQLVESGGGLVQAGGSLRLSCAASGSIFYQYAMGWYRQAPGTERELVAAITWIGSPNYADSVKGRFTISRDNAKNTVYLQMNSLKPEDTAVYYCNTDPYVLQKYDYWGQGTQVTVSS,low polyreactivity
6,QVQLVESGGGLVQAGGSLRLSCAASGSIFYRITMGWYRQAPGKERELVAAISTNGGSTYYADSVKGRFTISRDNAKNSVYLQMNSLKPEDTAVYYCAADLRRSDYDYWGQGTQVTVSS,high polyreactivity
7,QVQLVESGGGLVQAGGSLRLSCAASGSIFYRNAMGWSRQPPGKERELVAGITTRGGSTYYADSVKGRFTISRDNAKNTVYLQMNSLKPEDTAVYYCAAVPYSRYSSSRGYWGQGTQVTVSS,high polyreactivity
8,QVQLVESGGGLVQAGGSLRLSCAASGSIFYRNAMGWYIQAPGKERELVAAISRRGGITYYADSVKGRFTISRDNAKNTVYLQMNSLKPEDTAVYYCYTDTGGMDYWGQGTQVTVSS,high polyreactivity
9,QVQLVESGGGLVQAGGSLRLSCAASGSIFYRNAMGWYRPAPGKERELVAAISSDGSTNYADSVKGRFTISRDNAKNTVYLQMNSLKPEDTAVYYCAVDRYRYPFDYWGQGTQVTVSS,low polyreactivity
10,QVQLVESGGGLVQAGGSLRLSCAASGSIFYRNAMGWYRQAPGKERELVATITVNGGRTYYADSVKGRFTISRDNANNTVYLQMNSLKPEDTAVYDCAKDVHRWDPYDYWGQGTQVTVSS,low polyreactivity
11,QVQLVESGGGLVQAGGSLRLSCAASGSIFYRNTMGWYRQAPGKERELVAGITGNGGRTYYADSVKGRFTISRDNAKNTVYLQMNSQKPEDTAVYYCAAGTWTWYRYYYWGQGTQVTVSS,high polyreactivity
12,QVQLVESGGGLVQAGGSLRLSCAASGSIFYRYAMGWYRQAPGKERELFATITQSGVSTYYADSVKGRFTISRDNAKNTVFLQRISLKPEDTAVYYCAASYYYTIGPYLRKFDWGQGTQVTVSS,low polyreactivity
13,QVQLVESGGGLVQAGGSLRLSCAASGSIFYRYAMGWYRQAPGKERELVAAINWSGGSTYYADSVKGGFTISRDNAKNTVYLQMNTLKPEDTAVYYCAARLYWRRYDYWGQGTQVTVSS,high polyreactivity
14,QVQLVESGGGLVQAGGSLRLSCAASGSIFYRYAMGWYRQAPGKERELVAAIRWSGGSTYYADSVKGRFTISRDNAKNTVYLQMNSLKPEDTAVYYCATEVSSGGYWSWYGYWGQGTQVTVSS,low polyreactivity
15,QVQLVESGGGLVQAGGSLRLSCAASGSIFYRYAMGWYRQAPGKERELVAAISRSGGRTYYADSVKGRFTISRDNAKNTVYLQMNSLKPEDTAVYYCAAESTVGTDLGGDSWGQGTQVTVSS,high polyreactivity
16,QVQLVESGGGLVQAGGSLRLSCAASGSIFYRYAMGWYRQAPGKERELVAAISSGSSTHYADSVKGRFTISRDNAKNTVYLQMNSLKPEDTAVYYCAARYRAFTSTRRFDYWGQGTQVTVSS,high polyreactivity
17,QVQLVESGGGLVQAGGSLRLSCAASGSIFYRYAMGWYRQAPGKERELVAAISSRGGSTNYADSVKGRFTISRDNAKNTVYLQMNSLKPEDTAVYYCAAGWNYLRQFNFNYWGQGTQVTVSS,high polyreactivity
18,QVQLVESGGGLVQAGGSLRLSCAASGSIFYRYAMGWYRQAPGKERELVADISSGGGTSYADSVKGRFTISRDNAKNTVYLQMNSLKPEDTAVYYCAAELYYWTYVRFDYWGQGTQVTVSS,low polyreactivity
19,QVQLVESGGGLVQAGGSLRLSCAASGSIFYSNAKGWYRQAPGKERELVATITWSGGRTYYADSVKGRFTISRDNAKNTVYLQMNILKPEDTAVYYCAAVSIYWGQGTQVTVSS,low polyreactivity
20,QVQLVESGGGLVQAGGSLRLSCAASGSIFYSNAMGWYRQAAGKERELVAAISVSGVSTYYADSVKGRFTISRDTAKNTVYLQMNSLKPEDTAVYYCAADTGYRYDDYYWWGGEYDYWGQGTQVTVSS,low polyreactivity
21,QVQLVESGGGLVQAGGSLRLSCAASGSIFYSNAMGWYRQAPGKERELVAAINWRGGSTYYADSVKGRFTISRDYAKNTVYLQMNSLKPEDTAVYYCNADSYDEIKYGYWGQGTQVTVSS,low polyreactivity
22,QVQLVESGGGLVQAGGSLRLSCAASGSIFYSNAMGWYRQAPGKERELVAAISVSGVTTYYADSVKGRFTISRDNAKNTVYLQMNSLKPEDTAVYYCAADTGYRYDDYYWWGGEYDYWGQGTQVTVSS,low polyreactivity

row,Sequence,polyreactivity (PSR sort gate)
1,QVQLVESGGGLVQAGGSLRLSCAASGSIFYSNAMGWYRQAPGKERELVAAITRRGGSTYYADSVKGRFTISRDNAKNTVYLQMNSLKPEDTAVYYCAARYYRRFAHYGEYGYWGQGTQVTVSS,high polyreactivity
2,QVQLVESGGGLVQAGGSLRLSCAASGSIFYSNAMGWYRQAPGKERELVAAITRRGGSTYYADSVKGRFTISRDNAKNTVYLQMNSLKPEDTAVYYCNRDPDIYIGYDYWGQGTQVTVSS,high polyreactivity
3,QVQLVESGGGLVQAGGSLRLSCAASGSIFYSNAMGWYRQAPGKERELVAAITWSGGSTYYADSVKGRFTISRDNAKNTVYLQMNSLKPEDTAVYYCNARRNVRQTFGYEYWGQGTQVTVSS,high polyreactivity
4,QVQLVESGGGLVQAGGSLRLSCAASGSIFYSNAMGWYRQAPGKERELVARITWSGGSTYYADSVKGRFTISRDNAKNTVYLQMNSLKPEDTAVYYCNKVIFRYFTTRPTRTYEYWGQGTQVTVSS,low polyreactivity
5,QVQLVESGGGLVQAGGSLRLSCAASGSIFYSNAMGWYRQAPGKERELVATIRSGGTTYYADSVKGRFTISRDNAKNTVYLQMNSLKPEDTAVYYCAKRYGVKYWGQGTQVTVSS,high polyreactivity
6,QVQLVESGGGLVQAGGSLRLSCAASGSIFYSNVMGWYRQAPGKERELVAAISKNGGSTYYADSVKGRFTISRDNAKNTVYLQMNSLKPEDTAVYYCAKYGYVGTTYGYWGQGTQVTVSS,high polyreactivity
7,QVQLVESGGGLVQAGGSLRLSCAASGSIFYSYAKGWYRQAPGKERELVAAISWDASTYFADSVKGRFTISRDNAKYSVYLQMNSLKPEDTAVYYCNADIPYYFVYDAYDYWGQGTQVTVSS,low polyreactivity
8,QVQLVESGGGLVQAGGSLRLSCAASGSIFYSYAMGWSRQAPGKERELFAAISYSTTSTYYADSVKGRFTISCDNAKNTVYLQMKSLKPEDTAVYYCAVDYIIWYDGYLLYYWGQGTQVTVSS,low polyreactivity
9,QVQLVESGGGLVQAGGSLRLSCAASGSIFYSYAMGWYRQAPGKERELVAAISYSSGSTYYADSVKGRFTISRDNAKNTVYLQMNSLKPEDTAVYYCAAEGNGWQVDVTEVGEYDSWGQGTQVTVSS,high polyreactivity
10,QVQLVESGGGLVQAGGSLRLSCAASGSIFYSYAMGWYRQAPGKERELVARINYRGGSTYYADSVKGRFTISRDNAMNTVYLQMNSLKPEDTAVYYCAKRSYWSSNPRDYWGQGTQVTVSS,high polyreactivity
11,QVQLVESGGGLVQAGGSLRLSCAASGSIFYTNVMGWYRQAPGKERELVAAISSSGDRTYYADSVKGRFTISRDNAKNTVYLQMNSLKPEDTAVYYCAAQSYRSRYYYWGQGTQVTVSS,high polyreactivity
12,QVQLVESGGGLVQAGGSLRLSCAASGSIFYTYAMGWYRQAPGKERELVAAISRSGGSTYYADSVKGRFTISRDNAKNTVYLQMNSLKPEDTAVYYCAAVSYRGRGYWGQGTQVTVSS,high polyreactivity
13,QVQLVESGGGLVQAGGSLRLSCAASGSIFYTYTMGWYRQAPGKERELVAAISTRGGSTYYADSVKGRFTISRDNAKNTFYLQMNSLKPEDTAVYYCAAGLQRYRMYYWGQGTQVTVSS,high polyreactivity
14,QVQLVESGGGLVQAGGSLRLSCAASGSIFYVNAMGWYRQAPGTERELVAAISWRSGRTYYADSVKGRFTISRDHAKNTVYLQMHSLKPEDTAVYYCAARVRRGSTQAQYYYWGQGTQVTVSS,high polyreactivity
15,QVQLVESGGGLVQAGGSLRLSCAASGSIFYVNVMGWYRQAPGKERELVATISSGDTNYADSVKGRFTISRDNAKNTVYLQMNSLKPEDTAVYYCARRRTIPYTLVDYDSWGQGTQVTVSS,low polyreactivity
16,QVQLVESGGGLVQAGGSLRLSCAASGSIFYVYAMGWYRQAPGKERELVAAIRRSGTSTYYADSVKGRFTISRDNAKNTVYLQMNSLKPEDSAVYYCAARYEVRHTLYNYWGQGTQVTVSS,high polyreactivity
17,QVQLVESGGGLVQAGGSLRLSCAASGSIFYWYAMGWYRQAPGKERELVAGITGRGGSTYYADSVKGRFTISRDNAKNTVYLQMNSLKPEDSAVYYADFVKYGKYYQRYDYWAQGTQVTVSS,high polyreactivity
18,QVQLVESGGGLVQAGGSLRLSCAASGSIFYWYAMGWYRQAPGKERELVATNRYRGGNTYYADSVKGRFTISRDNAMNTVYLQMNSLKAEDTAVYYADFVKFCKYYQRYDYWGQGTQVTVSS,high polyreactivity
19,QVQLVESGGGLVQAGGSLRLSCAASGSIFYWYAMGWYSQAPGKERELVAAIDISDDTYYADSVKGRFTISRDNAKNTVYLQMNSLKPEDTAGYYCAARTTRWFYEYDWGQGSQVTVSS,high polyreactivity
20,QVQLVESGGGLVQAGGSLRLSCAASGSIFYYKYSMGWYRQAPGKERELVAAITSTGGTTYYADSVKGRFTISRDNAKNTVYLQMNSLKPEDTAVYYCAALAPYIGGVDYDYWGQGTQVTVSS,low polyreactivity
21,QVQLVESGGGLVQAGGSLRLSCAASGSIFYYNAMGWYRPAPGKERELVAAITWSGGTYYADSVKGRFTISRDNAKNTVYLQMNSLKPEDTAVYYCNGARLYKWSFTPKFEMDHWGQGTQVTVSS,low polyreactivity
